T1: Botulinum neurotoxin serotype B (BoNT/B) holotoxin (Clostridium botulinum, UniProt P10844 2-1291)
T1 sequence: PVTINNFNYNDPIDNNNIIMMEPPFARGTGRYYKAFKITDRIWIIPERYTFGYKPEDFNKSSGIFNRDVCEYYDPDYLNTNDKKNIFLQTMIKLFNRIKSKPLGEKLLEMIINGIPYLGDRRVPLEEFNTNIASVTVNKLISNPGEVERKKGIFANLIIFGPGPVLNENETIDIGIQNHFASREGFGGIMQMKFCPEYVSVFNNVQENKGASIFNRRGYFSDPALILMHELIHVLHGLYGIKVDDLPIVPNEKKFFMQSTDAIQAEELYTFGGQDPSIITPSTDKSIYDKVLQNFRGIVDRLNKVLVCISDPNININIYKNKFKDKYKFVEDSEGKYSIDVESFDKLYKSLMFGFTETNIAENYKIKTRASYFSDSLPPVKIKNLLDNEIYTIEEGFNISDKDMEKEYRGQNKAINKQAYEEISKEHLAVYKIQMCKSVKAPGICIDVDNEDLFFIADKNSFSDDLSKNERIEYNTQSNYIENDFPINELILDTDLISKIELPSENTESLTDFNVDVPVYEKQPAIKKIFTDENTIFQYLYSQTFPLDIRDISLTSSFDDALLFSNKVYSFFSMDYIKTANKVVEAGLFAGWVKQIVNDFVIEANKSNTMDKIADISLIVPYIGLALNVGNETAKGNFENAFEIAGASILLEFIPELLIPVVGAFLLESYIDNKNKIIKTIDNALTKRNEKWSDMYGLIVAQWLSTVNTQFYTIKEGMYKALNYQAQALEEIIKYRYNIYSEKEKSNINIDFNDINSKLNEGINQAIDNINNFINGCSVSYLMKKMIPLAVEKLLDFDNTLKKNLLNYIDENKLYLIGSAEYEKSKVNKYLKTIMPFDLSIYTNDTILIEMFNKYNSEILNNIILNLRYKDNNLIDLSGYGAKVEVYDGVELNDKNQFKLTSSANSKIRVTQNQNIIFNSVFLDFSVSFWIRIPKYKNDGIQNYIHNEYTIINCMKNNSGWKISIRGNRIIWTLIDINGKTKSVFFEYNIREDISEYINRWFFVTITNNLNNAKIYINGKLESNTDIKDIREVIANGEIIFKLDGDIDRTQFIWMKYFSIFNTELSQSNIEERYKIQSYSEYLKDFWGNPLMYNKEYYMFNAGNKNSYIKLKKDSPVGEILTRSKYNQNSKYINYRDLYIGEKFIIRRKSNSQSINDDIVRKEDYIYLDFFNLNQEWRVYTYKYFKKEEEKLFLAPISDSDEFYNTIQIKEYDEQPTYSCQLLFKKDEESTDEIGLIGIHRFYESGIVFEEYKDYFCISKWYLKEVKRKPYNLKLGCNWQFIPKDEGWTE

B1: Stx1-D4 (VHH)
VHH: QVQLVESGGGLVQAGGSLRLSCAASGRINGDYAMGWFRQAPGEEREFVAVNSWIGGSTYYTDSVKGRFTLSRDNAKNTLSLQMNSLKPEDTAVYYCAAGHYTDFPTYFKEYDYWGQGTQVTVSS
B2: A9/D4 heterodimer VNA (designed binder)
chain: QVQLVETGGGLAQAGDSLRLSCVEPGRTLDMYAMGWIRQAPGEEREFVASISGVGGSPRYADSVKGRFTISKDNTKSTIWLQMNSLKPEDTAVYYCAAGGDIYYGGSPQWRGQGTRVTVSSEPKTPKPQGGGGSGGGGSGGGGSQVQLVESGGGLVQAGGSLRLSCAASGRINGDYAMGWFRQAPGEEREFVAVNSWIGGSTYYTDSVKGRFTLSRDNAKNTLSLQMNSLKPEDTAVYYCAAGHYTDFPTYFKEYDYWGQGTQVTVSSEPKTPKPQ
B3: A9/A5/G1 heterotrimer VNA (designed binder)
chain: QVQLVETGGGLAQAGDSLRLSCVEPGRTLDMYAMGWIRQAPGEEREFVASISGVGGSPRYADSVKGRFTISKDNTKSTIWLQMNSLKPEDTAVYYCAAGGDIYYGGSPQWRGQGTRVTVSSEPKTPKPQGGGGSGGGGSGGGGSQVQLVESGGGLVQPGGSLRLSCAALEFTLEDYAIAWFRQAPGKEREGVSCISKSGVTKYTDSVKGRFTVARDNAKSTVILQMNNLRPEDTAVYNCAAVRPVFVDSVCTLATRYTYWGEGTQVTVSSAHHSEDPGGGGSGGGGSGGGGSQVQLVESGGGLVQPGESLRLSCVASASTFSTSLMGWVRQAPGKGLESVAEVRTTGGTFYAKSVAGRFTISRDNAKNTLYLQMNSLKAEDTGVYYCTAGAGPIATRYRGQGTQVTVSSAHHSEDP
B4: Stx1-A9 (VHH)
VHH: QVQLVETGGGLAQAGDSLRLSCVEPGRTLDMYAMGWIRQAPGEEREFVASISGVGGSPRYADSVKGRFTISKDNTKSTIWLQMNSLKPEDTAVYYCAAGGDIYYGGSPQWRGQGTRVTVSS
B5: Stx-A4 (VHH)
VHH: QVQLVESGGGLVQPGGSLRLSCAASGFTLGSYHIGWFRHPPGKEREGTSCLSSRGDYTKYAEAVKGRFTISRDNTKSTVYLQMNNLKPEDTGIYVCAAIRPVLSDSHCTLAARYNYWGQGTQVTVSS
B6: Stx-A5 (VHH)
VHH: QVQLVESGGGLVQPGGSLRLSCAALEFTLEDYAIAWFRQAPGKEREGVSCISKSGVTKYTDSVKGRFTVARDNAKSTVILQMNNLRPEDTAVYNCAAVRPVFVDSVCTLATRYTYWGEGTQVTVSS
B7: A5/D10 heterodimer VNA (designed binder)
chain: QVQLVESGGGLVQPGGSLRLSCAALEFTLEDYAIAWFRQAPGKEREGVSCISKSGVTKYTDSVKGRFTVARDNAKSTVILQMNNLRPEDTAVYNCAAVRPVFVDSVCTLATRYTYWGEGTQVTVSSAHHSEDPGGGGSGGGGSGGGGSQVQLVETGGLVQAGGSLRLSCAASGVPFSDYTMAWFRQAPGKEREVVARITWRGGGPYYGNSGNGRFAISRDIAKSMVYLHMDSLKPEDTAVYYCAASRLRPALASMASDYDYWGQGTQVSVSSEPKTPKPQ
B8: Stx2-D10 (VHH)
VHH: QVQLVETGGLVQAGGSLRLSCAASGVPFSDYTMAWFRQAPGKEREVVARITWRGGGPYYGNSGNGRFAISRDIAKSMVYLHMDSLKPEDTAVYYCAASRLRPALASMASDYDYWGQGTQVSVSS
B9: Stx2-G1 (VHH)
VHH: QVQLVESGGGLVQPGESLRLSCVASASTFSTSLMGWVRQAPGKGLESVAEVRTTGGTFYAKSVAGRFTISRDNAKNTLYLQMNSLKAEDTGVYYCTAGAGPIATRYRGQGTQVTVSS
B10: Stx2-G9 (VHH)
VHH: QVQLVESGGGLVQPGGSLTLSCTASGFTLNSYKIGWFRQAPGKEREGVSCINSGGNLRSVEGRFTISRDNTKNTVSLHMDSLKPEDTGVYHCAAAPALNVFSPCVLAPRYDYWGQGTQVTVSS
B11: Stx2-H6 (VHH)
VHH: QVQLVETGGGLVQPGGSLRLSCAASGFSLDPYVIGWFRQAPGKEREGVSCITSRAASRTSVDSVNERFTISRDNAKNTVDLHINNLKPEDSGVYYCAAVPPAKLPLFSLCRSLPAKYDYWGQGTQVTVSS
B12: G1/D10 heterodimer VNA (designed binder)
chain: QVQLVESGGGLVQPGESLRLSCVASASTFSTSLMGWVRQAPGKGLESVAEVRTTGGTFYAKSVAGRFTISRDNAKNTLYLQMNSLKAEDTGVYYCTAGAGPIATRYRGQGTQVTVSSAHHSEDPGGGGSGGGGSGGGGSQVQLVETGGLVQAGGSLRLSCAASGVPFSDYTMAWFRQAPGKEREVVARITWRGGGPYYGNSGNGRFAISRDIAKSMVYLHMDSLKPEDTAVYYCAASRLRPALASMASDYDYWGQGTQVSVSSEPKTPKPQ
B13: Stx2-A6 (VHH)
VHH: QVQLVESGGGLVQPGGSLKLSCAASGFTLADYVTVWFRQAPGKSREGVSCISSSRGTPNYADSVKGRATVSRNNANNTVYLQMNGLKPDDTAIYYCAAIRPARLRAYRECLSSQAEYDYWGQGTQVTVSS
B14: Stx2-D2 (VHH)
VHH: QVQLVESGGGLVQPGGSLGLSCAMSGTTQDYSAVGWFRQAPGKEREGVSCISRSGRRTNYADSVRGRFTISRDNAKDTVYLQMNSLKPDDTAVYYCAARKTDMSDPYYVGCNGMDYWGKGTLVTVSS
B15: ciB-A11 (VHH)
VHH: QVQLVEGGGGLVQPGGALRLSCAASVFGMDYYYIGWVRQAPGKEREGVSCISNIGRTHYADSVKGRFTISRDNAKNTVYLQMNSLKPEDTAVYYCAAAPLVGNYCPASYEYESWGQGTQVTVSS
B16: ciB-B5 (VHH)
VHH: QVQLVESGGGLVQPGGSLRLSCAASGQSLDNYIIGWFRQAPGKEREGVSCIDRTGTVTHYADSVKGRFTISTDNVKNTVYLEMNDLKPEDTATYFCAAERRWGVVSVCVISDYYFDSWGQGTQVTVSS
B17: ciB-A11/B5 heterodimer (designed binder)
chain: QVQLVEGGGGLVQPGGALRLSCAASVFGMDYYYIGWVRQAPGKEREGVSCISNIGRTHYADSVKGRFTISRDNAKNTVYLQMNSLKPEDTAVYYCAAAPLVGNYCPASYEYESWGQGTQVTVSSAHHSEDPSGGGGSGGGGSGGGGSQVQLVESGGGLVQPGGSLRLSCAASGQSLDNYIIGWFRQAPGKEREGVSCIDRTGTVTHYADSVKGRFTISTDNVKNTVYLEMNDLKPEDTATYFCAAERRWGVVSVCVISDYYFDSWGQGTQVTVSSAHHSEDPS

Molecular target: Shiga toxin 1 (Stx1) (Escherichia coli O157:H7) (UniProt P08026)
Assay: not given

Chain of Shiga toxin 1 (Stx1) (Escherichia coli O157:H7) (P08026 23-315): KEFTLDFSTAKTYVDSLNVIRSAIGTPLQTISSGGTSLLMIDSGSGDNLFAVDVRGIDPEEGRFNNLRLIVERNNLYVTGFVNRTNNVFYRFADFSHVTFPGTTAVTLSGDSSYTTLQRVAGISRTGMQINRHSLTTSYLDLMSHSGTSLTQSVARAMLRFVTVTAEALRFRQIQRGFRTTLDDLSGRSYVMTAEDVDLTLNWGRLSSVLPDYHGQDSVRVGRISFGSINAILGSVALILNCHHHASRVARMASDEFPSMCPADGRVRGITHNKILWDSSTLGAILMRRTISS

Row | Binder | EC50 (read off the curve) [nM]
1 | B1 | 0.5
2 | B2 | 0.6

Molecular target: Shiga toxin 1 (Stx1) (Escherichia coli O157:H7) (UniProt P08026)
Assay: not given
Remark: another data set of the same source

Row | Binder | EC50 (read off the curve) [nM]
3 | B3 | 0.5

Molecular target: Shiga toxin 1 (Stx1) (Escherichia coli O157:H7) (UniProt P08026)
Assay: SPR, Stx1 immobilised

Row | Binder | Kd [nM]
4 | B4 | 7.6
5 | B1 | 0.128
6 | B5 | 7.2
7 | B6 | 12.5
8 | B2 | 1.2
9 | B7 | 9.2
10 | B3 | 0.46

Molecular target: Shiga toxin 1 (Stx1) (Escherichia coli O157:H7) (UniProt P08026)
Assay: cell-based or functional assay

Row | Binder | IC50, Vero cell neutralization assay [nM]
11 | B4 | 10
12 | B1 | > 1000
13 | B5 | > 330
14 | B6 | 100
15 | B8 | > 1000
16 | B9 | > 1000
17 | B10 | > 1000
18 | B11 | > 1000
19 | B2 | 1
20 | B7 | 50
21 | B12 | > 100
22 | B3 | 0.05

Molecular target: Shiga toxin 1 (Stx1) (Escherichia coli O157:H7) (UniProt P08026)
Assay: dilution ELISA, HRP-anti-E-tag

Row | Binder | EC50 [nM]
23 | B4 | 10
24 | B1 | 0.5
25 | B5 | 30
26 | B6 | 15
27 | B8 | > 1000
28 | B9 | > 1000
29 | B10 | > 1000
30 | B11 | > 1000
31 | B2 | 0.6
32 | B7 | 30
33 | B12 | > 1000
34 | B3 | 0.5
35 | B13 | > 1000
36 | B14 | > 1000

Molecular target: T1, Botulinum neurotoxin serotype B …
Assay: SPR; chip ligand for BoNT/B not described

Row | Binder | Kd [nM]
37 | B15 | 0.84
38 | B16 | 0.97
39 | B17 | 5.3

Source: patent publication US20140294826A1 (TUFTS UNIVERSITY, published 2014)
